Experimental data reported in the Human Domainome abundance scans (Beltran et al. 2025).
± gives the uncertainty stated by the source.

B1: POU domain, class 6, transcription factor 2, residues 609 to 663; numbered along this chain, P78424 (parent)
chain: KRRTSFTPQALEILNAHFEKNTHPSGQEMTEIAEKLNYDREVVRVWFCNKRQALK

Variants of: B1
Assay: abundance fitness (aPCA) (normalised: wild type 0, dead -1); higher = more abundant; growth selection in yeast, the domain comes from the species named
Conditions: Homo sapiens

Variant	abundance fitness
KRRTSFTPQALEILNAHFEKNTHPSGQEMTEIAEKLNYDKEVVRVWFCNKRQALK [R40K]	0.001 ± 0.092
KRRTSFTPQALEILNAHFEKNTHPSGQEMTEIAEKLNYDVEVVRVWFCNKRQALK [R40V]	-0.013 ± 0.073
KRRTSFTPQALEILNAHFEKNTHPSGQEMTEIAEKLNYDWEVVRVWFCNKRQALK [R40W]	-0.014 ± 0.089
KRRTSFTPQALEILNAHFEKNTHPSGQEMTEIAEKLNYDFEVVRVWFCNKRQALK [R40F]	0.041 ± 0.088
KRRTSFTPQALEILNAHFEKNTHPSGQEMTEIAEKLNYDYEVVRVWFCNKRQALK [R40Y]	-0.087 ± 0.11
KRRTSFTPQALEILNAHFEKNTHPSGQEMTEIAEKLNYRREVVRVWFCNKRQALK [D39R]	-0.131 ± 0.053
KRRTSFTPQALEILNAHFEKNTHPSGQEMTEIAEKLNYNREVVRVWFCNKRQALK [D39N]	-0.138 ± 0.073
KRRTSFTPQALEILNAHFEKNTHPSGQEMTEIAEKLNYKREVVRVWFCNKRQALK [D39K]	-0.257 ± 0.11
KRRTSFTPQALEILNAHFEKNTHPSGQEMTEIAEKLNYVREVVRVWFCNKRQALK [D39V]	-0.418 ± 0.061
KRRTSFTPQALEILNAHFEKNTHPSGQEMTEIAEKLNYFREVVRVWFCNKRQALK [D39F]	-0.635 ± 0.068
KRRTSFTPQALEILNAHFEKNTHPSGQEMTEIAEKLNYIREVVRVWFCNKRQALK [D39I]	-0.597 ± 0.079
KRRTSFTPQALEILNAHFEKNTHPSGQEMTEIAEKLNYHREVVRVWFCNKRQALK [D39H]	-0.113 ± 0.062
KRRTSFTPQALEILNAHFEKNTHPSGQEMTEIAEKLNYTREVVRVWFCNKRQALK [D39T]	-0.002 ± 0.058
KRRTSFTPQALEILNAHFEKNTHPSGQEMTEIAEKLNYQREVVRVWFCNKRQALK [D39Q]	-0.152 ± 0.078
KRRTSFTPQALEILNAHFEKNTHPSGQEMTEIAEKLNYSREVVRVWFCNKRQALK [D39S]	-0.052 ± 0.053
KRRTSFTPQALEILNAHFEKNTHPSGQEMTEIAEKLNYEREVVRVWFCNKRQALK [D39E]	-0.208 ± 0.092
KRRTSFTPQALEILNAHFEKNTHPSGQEMTEIAEKLNYMREVVRVWFCNKRQALK [D39M]	-0.483 ± 0.13
KRRTSFTPQALEILNAHFEKNTHPSGQEMTEIAEKLNYWREVVRVWFCNKRQALK [D39W]	-0.54 ± 0.094
KRRTSFTPQALEILNAHFEKNTHPSGQEMTEIAEKLNYGREVVRVWFCNKRQALK [D39G]	-0.146 ± 0.059
KRRTSFTPQALEILNAHFEKNTHPSGQEMTEIAEKLNYPREVVRVWFCNKRQALK [D39P]	0.037 ± 0.058
KRRTSFTPQALEILNAHFEKNTHPSGQEMTEIAEKLNYYREVVRVWFCNKRQALK [D39Y]	-0.425 ± 0.075
KRRTSFTPQALEILNAHFEKNTHPSGQEMTEIAEKLNYDREVVHVWFCNKRQALK [R44H]	-0.199 ± 0.14
KRRTSFTPQALEILNAHFEKNTHPSGQEMTEIAEKLNYDREVVDVWFCNKRQALK [R44D]	-0.179 ± 0.12
KRRTSFTPQALEILNAHFEKNTHPSGQEMTEIAEKLNYDREVVAVWFCNKRQALK [R44A]	-0.017 ± 0.082

Variant	abundance fitness
KRRTSFTPQALEILNAHFEKNTHPSGQEMTEIAEKLNYDREVVEVWFCNKRQALK [R44E]	0.027 ± 0.1
KRRTSFTPQALEILNAHFEKNTHPSGQEMTEIAEKLNYDREVVNVWFCNKRQALK [R44N]	-0.195 ± 0.15
KRRTSFTPQALEILNAHFEKNTHPSGQEMTEIAEKLNYDREVVIVWFCNKRQALK [R44I]	-0.152 ± 0.13
KRRTSFTPQALEILNAHFEKNTHPSGQEMTEIAEKLNYDREVVMVWFCNKRQALK [R44M]	-0.075 ± 0.093
KRRTSFTPQALEILNAHFEKNTHPSGQEMTEIAEKLNYDREVVFVWFCNKRQALK [R44F]	-0.117 ± 0.1
KRRTSFTPQALEILNAHFEKNTHPSGQEMTEIAEKLNYDREVVKVWFCNKRQALK [R44K]	-0.195 ± 0.11
KRRTSFTPQALEILNAHFEKNTHPSGQEMTEIAEKLNYDREVVLVWFCNKRQALK [R44L]	-0.21 ± 0.067
KRRTSFTPQALEILNAHFEKNTHPSGQEMTEIAEKLNYDREVVPVWFCNKRQALK [R44P]	-0.421 ± 0.1
KRRTSFTPQALEILNAHFEKNTHPSGQEMTEIAEKLNYDREVVCVWFCNKRQALK [R44C]	-0.076 ± 0.13
KRRTSFTPQALEILNAHFEKNTHPSGQEMTEIAEKLNYDREGVRVWFCNKRQALK [V42G]	-0.056 ± 0.062
KRRTSFTPQALEILNAHFEKNTHPSGQEMTEIAEKLNYDREWVRVWFCNKRQALK [V42W]	-0.151 ± 0.08
KRRTSFTPQALEILNAHFEKNTHPSGQEMTEIAEKLNYDRELVRVWFCNKRQALK [V42L]	0.061 ± 0.082
KRRTSFTPQALEILNAHFEKNTHPSGQEMTEIAEKLNYDRESVRVWFCNKRQALK [V42S]	0.029 ± 0.074
KRRTSFTPQALEILNAHFEKNTHPSGQEMTEIAEKLNYDREMVRVWFCNKRQALK [V42M]	0.034 ± 0.094
KRRTSFTPQALEILNAHFEKNTHPSGQEMTEIAEKLNYDREDVRVWFCNKRQALK [V42D]	-0.012 ± 0.1
KRRTSFTPQALEILNAHFEKNTHPSGQEMTEIAEKLNYDRERVRVWFCNKRQALK [V42R]	-0.176 ± 0.082
KRRTSFTPQALEILNAHFEKNTHPSGQEMTEIAEKLNYDRETVRVWFCNKRQALK [V42T]	0.002 ± 0.12
KRRTSFTPQALEILNAHFEKNTHPSGQEMTEIAEKLNYDREYVRVWFCNKRQALK [V42Y]	-0.099 ± 0.19
KRRTSFTPQALEILNAHFEKNTHPSGQEMTEIAEKLNYDREIVRVWFCNKRQALK [V42I]	-0.117 ± 0.13
KRRTSFTPQALEILNAHFEKNTHPSGQEMTEIAEKLNYDREEVRVWFCNKRQALK [V42E]	0.004 ± 0.073
KRRTSFTPQALEILNAHFEKNTHPSGQEMTEIAEKLNYDREPVRVWFCNKRQALK [V42P]	0.019 ± 0.15
KRRTSFTPQALEILNAHFEKNTHPSGQEMTEIAEKLNYDREKVRVWFCNKRQALK [V42K]	0.066 ± 0.11
KRRTSFTPQALEILNAHFEKNTHPSGQEMTEIAEKLNYDREQVRVWFCNKRQALK [V42Q]	-0.124 ± 0.14
KRRTSFTPQALEILNAHFEKNTHPSGQEMTEIAEKLNYDRENVRVWFCNKRQALK [V42N]	-0.064 ± 0.18
